We go through one molecule from patent US20260317426 (published 2026).

In general, Kd refers to the concentration at which binding is half-saturated. Lower therefore signals higher affinity.

The target of assay [1] is T1, MICB*004 ECD (human, UniProt Q29980).
T1 chain: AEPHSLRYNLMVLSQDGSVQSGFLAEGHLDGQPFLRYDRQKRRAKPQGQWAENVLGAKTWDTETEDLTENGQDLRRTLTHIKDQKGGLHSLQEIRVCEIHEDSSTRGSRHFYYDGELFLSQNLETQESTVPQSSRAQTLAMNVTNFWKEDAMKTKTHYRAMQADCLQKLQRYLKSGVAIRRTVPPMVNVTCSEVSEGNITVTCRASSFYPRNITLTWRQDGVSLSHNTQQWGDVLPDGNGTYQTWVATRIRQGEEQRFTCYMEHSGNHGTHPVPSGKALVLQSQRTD
As to the kind of experiment: BLI, monovalent.

Assay [2] concerns the target T2, MICA ECD (alleles *001, *002, *004, *008) (human, UniProt Q29983).
T2 chain: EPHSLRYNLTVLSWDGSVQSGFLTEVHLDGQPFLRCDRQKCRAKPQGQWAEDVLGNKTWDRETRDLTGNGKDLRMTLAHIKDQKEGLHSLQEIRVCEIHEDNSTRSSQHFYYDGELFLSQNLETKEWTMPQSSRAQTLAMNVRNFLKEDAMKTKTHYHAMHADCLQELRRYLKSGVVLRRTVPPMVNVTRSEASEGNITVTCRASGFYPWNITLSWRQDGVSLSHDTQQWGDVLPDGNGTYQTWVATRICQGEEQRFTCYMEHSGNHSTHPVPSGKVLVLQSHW
As to the kind of experiment: BLI, monovalent, lowest of MICA alleles. A general note: Biolayer interferometry detects binding as a change in optical thickness at a sensor tip.

B1: CLN-619 (3F9H1L3L) (antibody, V domains shown)
VH: QVQLVESGGGLVKPGGSLRLSCAASGFTFSNYAMSWIRQAPGKGLEWVSYISPGGDYIYYADSVKGRFTISRDNAKNSLYLQMNSLRAEDTAVYYCTTDRRHYGSYAMDYWGQGTLVTVSS
VL: DIVMTQSPLSLPVTPGEPASISCRSSKSLLHSNLNTYLYWFLQKPGQSPQILIYRMSNLASGVPDRFSGSGSGTAFTLKISRVEAEDVGVYYCMQHLEYPFTFGPGTKLEIKR
On to B1, for which the Kd in assay [1] came to 11.4 nM; in assay [2], 0.77 nM.
